According to patent publication US20220048967A1 (published 2022):
Residue numbers refer to the chain shown, from its start. Numbered stars: 1 amine (or outer) side, 2 acyl side, 3 side chain; on linkers, the order of the positions; unused ones are H or OH. Square brackets hold non-standard residues; d marks the D form. Side chains are listed from the residue outwards. Ends that are not written are not given here. * marks the point of attachment. C20 diacid = O=C(O)CCCCCCCCCCCCCCCCCCC(=O)*; γGlu = O=C(O)[C@H](CCC(=O)[*:2])N[*:1]; AEEA = NCCOCCOCC(=O)O; Aib = CC(C)(N)C(=O)O

B1: Example 4 (peptide)
peptide: YXEGTXTSDXSIXLDXKAQXEFIXXLIEGGPSSGAPPPS
modifications: Aib2; αMeF(2F)6; 4Pal10; αMeL13; Orn16; K17((2-[2-(2-Amino-ethoxy)-ethoxy]-acetyl)2-(γ-Glu)-CO-(CH2)16-CO2H); Aib20; D-Glu24; αMeY25; C-terminal NH2
B2: Example 72 (peptide)
peptide: Y[Aib]EGTFTSDYSILLDKIAQ[Aib]K([AEEA-AEEA-γGlu-C20 diacid])FIEYLIEGG-NH2
modifications: N-terminus assumed
SMILES: CC[C@H](C)[C@H](NC(=O)[C@H](CCCCN)NC(=O)[C@H](CC(=O)O)NC(=O)[C@H](CC(C)C)NC(=O)[C@H](CC(C)C)NC(=O)[C@@H](NC(=O)[C@H](CO)NC(=O)[C@H](Cc1ccc(O)cc1)NC(=O)[C@H](CC(=O)O)NC(=O)[C@H](CO)NC(=O)[C@@H](NC(=O)[C@H](Cc1ccccc1)NC(=O)[C@@H](NC(=O)CNC(=O)[C@H](CCC(=O)O)NC(=O)C(C)(C)NC(=O)[C@@H](N)Cc1ccc(O)cc1)[C@@H](C)O)[C@@H](C)O)[C@@H](C)CC)C(=O)N[C@@H](C)C(=O)N[C@@H](CCC(N)=O)C(=O)NC(C)(C)C(=O)N[C@@H](CCCCNC(=O)COCCOCCNC(=O)COCCOCCNC(=O)CC[C@H](NC(=O)CCCCCCCCCCCCCCCCCCC(=O)O)C(=O)O)C(=O)N[C@@H](Cc1ccccc1)C(=O)N[C@H](C(=O)N[C@@H](CCC(=O)O)C(=O)N[C@@H](Cc1ccc(O)cc1)C(=O)N[C@@H](CC(C)C)C(=O)N[C@H](C(=O)N[C@@H](CCC(=O)O)C(=O)NCC(=O)NCC(N)=O)[C@@H](C)CC)[C@@H](C)CC
B3: Example 74 (peptide)
peptide: YXEGTFTSDYSIXLDKKAQXAXIEYLIEGGPSSGAPPPS
modifications: not fully specified; Aib2; αMeF13 as printed (likely αMeL13); K17((2-[2-(2-Amino-ethoxy)-ethoxy]-acetyl)2-(γ-Glu)-CO-(CH2)18-CO2H); Aib20; αMeF22; C-terminal NH2
B4: Example 78 (peptide)
peptide: B3 peptide with Y1X, X13L, X22F
modifications: D-Tyr1; Aib2; K17((2-[2-(2-Amino-ethoxy)-ethoxy]-acetyl)2-(γ-Glu)-CO-(CH2)18-CO2H); Aib20; C-terminal NH2
B5: Example 84 (peptide)
peptide: B3 peptide with X13L, X22F, E24X
modifications: Aib2; K17((2-[2-(2-Amino-ethoxy)-ethoxy]-acetyl)2-(γ-Glu)-CO-(CH2)18-CO2H); Aib20; D-Glu24; C-terminal NH2
B6: Example 82 (peptide)
peptide: B3 peptide with I12X, X13L, X22F
modifications: Aib2; D-Ile12; K17((2-[2-(2-Amino-ethoxy)-ethoxy]-acetyl)2-(γ-Glu)-CO-(CH2)18-CO2H); Aib20; C-terminal NH2
B7: Example 76 (peptide)
peptide: B3 peptide with F6X
modifications: not fully specified; Aib2; αMeF6; αMeF13 as printed (likely αMeL13); K17((2-[2-(2-Amino-ethoxy)-ethoxy]-acetyl)2-(γ-Glu)-CO-(CH2)18-CO2H); Aib20; αMeF22; C-terminal NH2
B8: Example 83 (peptide)
peptide: B3 peptide with X13L, X22F, E28X
modifications: Aib2; K17((2-[2-(2-Amino-ethoxy)-ethoxy]-acetyl)2-(γ-Glu)-CO-(CH2)18-CO2H); Aib20; D-Glu28; C-terminal NH2
B9: Example 81 (peptide)
peptide: B3 peptide with S11X, X13L, X22F
modifications: Aib2; D-Ser11; K17((2-[2-(2-Amino-ethoxy)-ethoxy]-acetyl)2-(γ-Glu)-CO-(CH2)18-CO2H); Aib20; C-terminal NH2
B10: Example 79 (peptide)
peptide: B3 peptide with Y1X, X2A, X13L, X22F
modifications: N-terminal Ac; D-Tyr1; K17((2-[2-(2-Amino-ethoxy)-ethoxy]-acetyl)2-(γ-Glu)-CO-(CH2)18-CO2H); Aib20; C-terminal NH2
B11: Example 75 (peptide)
peptide: B3 peptide with X22F, L26X
modifications: not fully specified; Aib2; αMeF13 as printed (likely αMeL13); K17((2-[2-(2-Amino-ethoxy)-ethoxy]-acetyl)2-(γ-Glu)-CO-(CH2)18-CO2H); Aib20; αMeF26 as printed (likely αMeL26); C-terminal NH2
B12: Example 77 (peptide)
peptide: Y[Aib]EGTFTSDYSILLKIAQ[Aib]AFIEYLIEGGPSSGAPPK([AEEA-AEEA-γGlu-C20 diacid])S-NH2
modifications: N-terminus assumed
SMILES: CC[C@H](C)[C@H](NC(=O)[C@H](CCCCN)NC(=O)[C@H](CC(C)C)NC(=O)[C@H](CC(C)C)NC(=O)[C@@H](NC(=O)[C@H](CO)NC(=O)[C@H](Cc1ccc(O)cc1)NC(=O)[C@H](CC(=O)O)NC(=O)[C@H](CO)NC(=O)[C@@H](NC(=O)[C@H](Cc1ccccc1)NC(=O)[C@@H](NC(=O)CNC(=O)[C@H](CCC(=O)O)NC(=O)C(C)(C)NC(=O)[C@@H](N)Cc1ccc(O)cc1)[C@@H](C)O)[C@@H](C)O)[C@@H](C)CC)C(=O)N[C@@H](C)C(=O)N[C@@H](CCC(N)=O)C(=O)NC(C)(C)C(=O)N[C@@H](C)C(=O)N[C@@H](Cc1ccccc1)C(=O)N[C@H](C(=O)N[C@@H](CCC(=O)O)C(=O)N[C@@H](Cc1ccc(O)cc1)C(=O)N[C@@H](CC(C)C)C(=O)N[C@H](C(=O)N[C@@H](CCC(=O)O)C(=O)NCC(=O)NCC(=O)N1CCC[C@H]1C(=O)N[C@@H](CO)C(=O)N[C@@H](CO)C(=O)NCC(=O)N[C@@H](C)C(=O)N1CCC[C@H]1C(=O)N1CCC[C@H]1C(=O)N[C@@H](CCCCNC(=O)COCCOCCNC(=O)COCCOCCNC(=O)CC[C@H](NC(=O)CCCCCCCCCCCCCCCCCCC(=O)O)C(=O)O)C(=O)N[C@@H](CO)C(N)=O)[C@@H](C)CC)[C@@H](C)CC
B13: Example 71 (peptide)
peptide: Y[Aib]EGTFTSDYSILK([AEEA-AEEA-γGlu-C20 diacid])DKIAQ[Aib]AFIEYLIEGG-NH2
modifications: N-terminus assumed
SMILES: CC[C@H](C)[C@H](NC(=O)[C@H](CCCCN)NC(=O)[C@H](CC(=O)O)NC(=O)[C@H](CCCCNC(=O)COCCOCCNC(=O)COCCOCCNC(=O)CC[C@H](NC(=O)CCCCCCCCCCCCCCCCCCC(=O)O)C(=O)O)NC(=O)[C@H](CC(C)C)NC(=O)[C@@H](NC(=O)[C@H](CO)NC(=O)[C@H](Cc1ccc(O)cc1)NC(=O)[C@H](CC(=O)O)NC(=O)[C@H](CO)NC(=O)[C@@H](NC(=O)[C@H](Cc1ccccc1)NC(=O)[C@@H](NC(=O)CNC(=O)[C@H](CCC(=O)O)NC(=O)C(C)(C)NC(=O)[C@@H](N)Cc1ccc(O)cc1)[C@@H](C)O)[C@@H](C)O)[C@@H](C)CC)C(=O)N[C@@H](C)C(=O)N[C@@H](CCC(N)=O)C(=O)NC(C)(C)C(=O)N[C@@H](C)C(=O)N[C@@H](Cc1ccccc1)C(=O)N[C@H](C(=O)N[C@@H](CCC(=O)O)C(=O)N[C@@H](Cc1ccc(O)cc1)C(=O)N[C@@H](CC(C)C)C(=O)N[C@H](C(=O)N[C@@H](CCC(=O)O)C(=O)NCC(=O)NCC(N)=O)[C@@H](C)CC)[C@@H](C)CC
B14: Example 73 (peptide)
peptide: Y[Aib]EGTFTSDYSILLDKIAQ[Aib]AFIEYLIK([AEEA-AEEA-γGlu-C20 diacid])GG-NH2
modifications: N-terminus assumed
SMILES: CC[C@H](C)[C@H](NC(=O)[C@H](CCCCN)NC(=O)[C@H](CC(=O)O)NC(=O)[C@H](CC(C)C)NC(=O)[C@H](CC(C)C)NC(=O)[C@@H](NC(=O)[C@H](CO)NC(=O)[C@H](Cc1ccc(O)cc1)NC(=O)[C@H](CC(=O)O)NC(=O)[C@H](CO)NC(=O)[C@@H](NC(=O)[C@H](Cc1ccccc1)NC(=O)[C@@H](NC(=O)CNC(=O)[C@H](CCC(=O)O)NC(=O)C(C)(C)NC(=O)[C@@H](N)Cc1ccc(O)cc1)[C@@H](C)O)[C@@H](C)O)[C@@H](C)CC)C(=O)N[C@@H](C)C(=O)N[C@@H](CCC(N)=O)C(=O)NC(C)(C)C(=O)N[C@@H](C)C(=O)N[C@@H](Cc1ccccc1)C(=O)N[C@H](C(=O)N[C@@H](CCC(=O)O)C(=O)N[C@@H](Cc1ccc(O)cc1)C(=O)N[C@@H](CC(C)C)C(=O)N[C@H](C(=O)N[C@@H](CCCCNC(=O)COCCOCCNC(=O)COCCOCCNC(=O)CC[C@H](NC(=O)CCCCCCCCCCCCCCCCCCC(=O)O)C(=O)O)C(=O)NCC(=O)NCC(N)=O)[C@@H](C)CC)[C@@H](C)CC

Experiments:
[1] = target: human GLP-1 receptor (human, UniProt P43220 24-463); test: cell-based or functional assay
[2] = target: T1, human GIP receptor (human, UniProt P48546 22-466); test: cell-based or functional assay
T1 sequence (looked up): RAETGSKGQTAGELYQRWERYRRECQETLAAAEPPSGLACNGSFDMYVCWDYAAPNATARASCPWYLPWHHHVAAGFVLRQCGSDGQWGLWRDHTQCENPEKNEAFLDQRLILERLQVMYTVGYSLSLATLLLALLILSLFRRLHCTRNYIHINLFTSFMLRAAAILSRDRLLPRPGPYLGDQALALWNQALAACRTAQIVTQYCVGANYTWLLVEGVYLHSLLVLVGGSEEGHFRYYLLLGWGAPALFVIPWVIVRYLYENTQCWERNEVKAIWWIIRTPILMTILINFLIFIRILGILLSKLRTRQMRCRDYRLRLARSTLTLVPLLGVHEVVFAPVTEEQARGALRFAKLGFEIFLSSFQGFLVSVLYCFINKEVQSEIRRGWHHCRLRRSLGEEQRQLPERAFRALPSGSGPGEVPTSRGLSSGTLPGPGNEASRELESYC

Binder | hGLP1R cAMP EC50 ratio [1] | hGLP1R cAMP Rel EC50 [1] [nM] | hGIPR cAMP EC50 ratio [2] | hGIPR cAMP Rel EC50 [2] [nM]
B1 | 1.41 | 0.0297 | 5.95 | 0.0272
B2 | 0.0645 | 0.906 | 0.715 | 0.252
B3 | 0.115 | 0.467 | 1.7 | 0.0866
B4 | 0.143 | 0.544 | 0.293 | 0.532
B5 | 0.173 | 0.374 | 1.59 | 0.0915
B6 | 0.00325 | 26.1 | 0.00679 | 24.3
B7 | 0.63 | 0.125 | 1.24 | 0.124
B8 | 0.166 | 0.387 | 0.804 | 0.182
B9 | 0.063 | 1.29 | 0.373 | 0.428
B10 | 0.041 | 2.02 | 2.11 | 0.0732
B11 | 0.0359 | 1.49 | 0.69 | 0.214
B12 | < 3.25e-05 | > 2000 | 0.00102 | 135
B13 | 0.0604 | 1.02 | 1.02 | 0.166
B14 | 0.0225 | 2.55 | 0.174 | 0.979
